Earlier results as cited in publication PMC6557900.

Molecular target: GHR pY487 pY487 region (Homo sapiens) (UniProt P10912)
Sequence (P10912 whole entry, looked up): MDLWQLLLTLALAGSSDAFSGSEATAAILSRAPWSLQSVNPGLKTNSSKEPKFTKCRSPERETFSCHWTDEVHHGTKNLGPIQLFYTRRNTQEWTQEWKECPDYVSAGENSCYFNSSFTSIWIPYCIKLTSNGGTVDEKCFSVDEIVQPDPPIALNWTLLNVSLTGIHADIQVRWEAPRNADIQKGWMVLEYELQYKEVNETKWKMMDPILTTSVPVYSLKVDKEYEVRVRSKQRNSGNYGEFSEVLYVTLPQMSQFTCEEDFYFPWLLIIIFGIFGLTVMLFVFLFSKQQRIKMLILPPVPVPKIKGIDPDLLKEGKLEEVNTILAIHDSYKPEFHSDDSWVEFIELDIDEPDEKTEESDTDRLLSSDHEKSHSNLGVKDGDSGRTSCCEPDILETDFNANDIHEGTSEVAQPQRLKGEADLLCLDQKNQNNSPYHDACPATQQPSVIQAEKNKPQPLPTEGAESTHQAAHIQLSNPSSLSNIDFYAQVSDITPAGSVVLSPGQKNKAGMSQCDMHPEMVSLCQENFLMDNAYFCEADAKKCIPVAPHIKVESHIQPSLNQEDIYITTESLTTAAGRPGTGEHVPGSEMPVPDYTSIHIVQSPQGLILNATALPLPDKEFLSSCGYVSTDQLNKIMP

SOCS2, sequence (O14508 whole entry): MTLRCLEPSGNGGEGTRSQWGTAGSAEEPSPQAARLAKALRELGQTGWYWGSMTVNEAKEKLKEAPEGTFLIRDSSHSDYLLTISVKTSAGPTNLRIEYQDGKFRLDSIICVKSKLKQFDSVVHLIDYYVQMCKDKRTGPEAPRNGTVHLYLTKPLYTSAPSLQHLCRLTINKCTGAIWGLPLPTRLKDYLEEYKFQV

For SOCS2 (from UniProt O14508), the Kd is listed as 11.3 µM.
